Patent US20130046257A1, “METHODS OF USING AGENTS THAT MODULATE CLAUDIN EXPRESSION” (priority 2010, published 2013)
“And” between values parts separate entries of the source, which are not always exact repeats. Equal values may be shown once. “Also recorded” adds a separate entry of the source.

How the values were obtained:
[1] = tested on: occludin, ZO-1, nectin-1, E-cadherin, filaggrin mRNA; test: qPCR of other barrier genes in claudin-1 siRNA transfected PHK; format: cell-based, human; conditions: siRNA 100 nM
Description: (§1) QPCR was performed using the iScript™ cDNA Synthesis kit and iQ™ SYBER Green Supermix assay system (Bio-Rad Laboratories). All PCR amplifications were carried out in triplicate on an iQ5 Multicolor real-time PCR detection system (Bio-Rad). Primers were designed and synthesized by Integrated
(§2) DNA Technologies (Table 1). Relative gene expression was calculated by using the 2^−ΔΔCt method. Livak and Schmittgen, “Analysis of Relative Gene Expression Data Using Real-Time Quantitative PCR and the 2(-Delta Delta C(T)) Method,” Methods 25:402-8 (2001), which is hereby incorporated by reference in its entirety. The normalized Ct value of each sample was calculated using GAPDH as an endogenous control gene.
Reverse transcription was performed from total RNA using iScript™ cDNA Synthesis kit (Bio-Rad) according to the manufacturer's protocol. qPCR was performed using the iQ™ SYBER Green Supermix assay system from Bio-Rad Laboratories. All PCR amplifications were carried out in triplicate on an iQ5 Multicolor real-time PCR detection system (Bio-Rad). Primers were designed and synthesized by Integrated DNA Technologies. Primers used in the study: GAPDH (forward: SEQ ID NO: 16 and reverse: SEQ ID NO: 17); Cldn-1 (forward: (SEQ ID NO:18 and reverse: SEQ ID NO:19); PVRL1 (Nectin1; forward: SEQ ID NO:28 and reverse SEQ ID NO:29).
Relative gene expression was calculated by using the […] method, in which Ct indicates cycle threshold, the fractional cycle number where the fluorescent signal reaches detection threshold. Livak and Schmittgen, “Analysis of Relative Gene Expression Data Using Real-Time Quantitative PCR and the 2(-Delta Delta C(T)) Method,” Methods 25:402-8 (2001), which is hereby incorporated by reference in its entirety. The normalized Ct value of each sample was calculated using GAPDH as an endogenous control gene.

connexin-26 (GJB2) = test: qPCR of connexin-26 in claudin-1 siRNA transfected PHK; format: cell-based, human; conditions: n=6
Description: as §1, §2

[2] = tested on: primary human keratinocytes (PHK); test: Trans Epithelial Electric Resistance (TEER) of PHK; format: cell-based
Description: Human keratinocytes were isolated from neonatal foreskin. Poumay et al., “Basal Detachment of the Epidermis Using Dispase: Tissue Spatial Organization and Fate of Integrin Alpha 6 Beta 4 and Hemidesmosomes,” J. Invest. Dermatol. 102:111-7 (1994), which is hereby incorporated by reference in its entirety. PHK were cultured in Keratinocyte-SFM (Invitrogen/Gibco) with 1% Pen/Strep, 0.2% Amphotericin B (Invitrogen/Gibco). To differentiate PHK, cells were grown in DMEM (Invitrogen/Gibco) with 10% heat-inactivated fetal bovine serum (Invitrogen/Gibco) and 1% Pen/Strep, 0.2% Amphotericin B (Invitrogen/Gibco). For TJ modulation experiments, the following cytokines were added alone or in combination to the differentiation media; human IL-4 (50 ng/ml; R&D system) and IL-13 (50 ng/ml; R&D system).
PHK were plated at a subconfluent density of 2.5−3×10^4 cells/filter in Transwell insert and cultured in Keratinocyte-SFM media until confluent. TEER was measured using an EVOMX voltohmmeter (World Precision Instruments, Sarasota, Fla.). The resistance of cell-free filters was subtracted from each experimental value.
PHK were plated on glass coverslips at 2-3×10^5 cells/well in a 6-well plate or at 2-3×10^4 cells/filter in Transwell insert (Costar; PET membrane, 0.4 μm pore size, 6.5 mm insert) in Keratinocyte-SFM without antibiotics. The next day after plating, cells were transfected with claudin-1 specific or control (scrambled) siRNAs (Santa Cruz) using Lipofectamine™ 2000 transfection Reagent (Invitrogen). TEER and permeability experiments were conducted 48 hours after PHK were switched to differentiation media.
TEER was measured in PHK as described above. PHK were stimulated with S. aureus-derived peptidoglycan (PGN, 0.2-20 μg/ml, n=3-7) (FIG. 19A), Malp-2 (10-1000 ng/ml, n=3) (FIG. 19B), and Pam3CSK4 a TLR1/2 ligand (0.01-20 μg/ml, n=3-6) (FIG. 19C). Data are presented by analyzing the area under the TEER curve and normalized to the mean values for the control group (media alone)*p<0.05; **p<0.01.

HSV-1 strain F = test: Infectious center assay (HSV-1 infected PHK on Vero cells); format: cell-based, human; conditions: siRNA 100 nM, 24 h post-infection, n=3
Description: Infection studies were performed using the highly virulent HSV-1 strain F (provided by Dr. D.C. Johnson). Twenty-four to 48 h post-transfection with 100 nM claudin-1 or control siRNA, the cells were differentiated in DMEM with 10% heat-inactivated FBS for 24 h. Cells were washed twice with HBSS and infected with HSV-1 strain F at a multiplicity of infection (MOI) of 0.1 in DMEM containing 1% heat-inactivated FBS at 37° C., with rocking every 15 min. After 2 h, the viral inoculum was removed, and the cells were washed 2× with HBSS and incubated in DMEM containing 5% HI-FBS and 0.4% human-γ-globulin (Sigma; final concentration 0.5 mg/ml) for 24 hr to neutralize any extracellular virus.
Twenty-four hours post-infection, PHK were treated with 0.05% Trypsin—EDTA (Invitrogen/Gibco) for 5 min at 37° C. followed by gently scraping to lift the cells, washed 3 times in DMEM containing 1% HI-FBS, and vortexed for 30 sec to disrupt cell clumps. Alive cells were counted using Trypan blue exclusion and scalar PHK dilutions (1000 to 1 cells in 1 ml of media) were plated onto pre-grown monolayers of Vero cells in six well plates. After 2 h, 1 ml of DMEM containing 5% HI-FBS and 0.4% human-γ-globulin (Sigma; final concentration 0.5 mg/ml) was added to each well. […] Plaques were counted by 2 independent investigators and results expressed as percent of infected PHK.

B1: CLDN1 siRNA: claudin-1 siRNA (h), Santa Cruz; a pool of 3 separate strands, SEQ ID NO: 10-15 (nucleic acid)
chain 1: UACAUAGGCAUAGUUCAUGNN
chain 2: CAUGAACUAUGCCUAUGUANN
chain 3: AACGUAUGCAGUUAAUUCCNN
chain 4: GGAAUUAACUGCAUACGUUNN
chain 5: UGAAGAUCUAUGUAUGUGGNN
chain 6: CCACAUACAUAGAUCUUCANN
modifications: chemistry not given here
[1]
  effect on nectin-1 mRNA expression: not affected; also recorded: no effect
[1]; n=5/group
  effect on mRNA expression of occludin, ZO-1, nectin-1, E-cadherin or filaggrin: no effect
  nectin-1 (PVRL1) mRNA relative expression: 0.99±0.16
connexin-26 (GJB2)
  connexin-26 (GJB2) expression, fold over control: 1.7±0.8 fold
[2]; CLDN1 siRNA, PHK, n=4
  TEER (FIG. 12C legend): 80.6±6.4
[2]; siRNA 100 nM, PHK 48 hours after switch to differentiation media, n=4
  TEER: 80.6±6.4 ohms×cm^2
[2]; siRNA 100 nM, vs scrambled siRNA-transfected PHK
  drop in TEER: ≥ 50%
HSV-1 strain F
  PHK infected with HSV-1: 38±6% and 38±6.43%
